Source: US20230288426A1, “REAGENT FOR MEASURING L-BIOTIN, METHOD FOR MEASURING SAMPLE CONTAINING L-BIOTIN, METHOD FOR DETERMINING NUMBER OF LABELS OF L-BIOTIN-LABELED SUBSTANCE, AND METHOD FOR PRODUCING SOLID PHASE ON WHICH OPTICALLY ISOMERIC BIOTIN-BINDING SITE IS IMMOBILIZED” (SYSMEX CORPORATION, priority 2022, published 2023)
Read-outs that look alike come from different tables or passages of the source.

Target: avidin (Gallus gallus, UniProt P02701)
Details: for A500 Measurement reagent 1: room temperature 5 minutes
Method: HABA (1 mg) and PBS (33 mL) were mixed to obtain a HABA solution. […] In the reagent, the concentration of avidin was 250 μg/mL, and the concentration of HABA was 30 μg/mL.
A reagent for measuring L-biotin (91.7 μL) was mixed with 0.1 M phosphate buffer (pH 7.5, 18.3 μL) or an L-biotin standard solution (18.3 μL), and the mixture was allowed to stand at room temperature for 5 minutes. Then, the absorbance at 500 nm (A500) of the reaction mixture was measured by spectrophotometer UV-2600 (Shimadzu Corporation). […] As a calibration curve, a straight line by a least squares method was used.
A sample containing the L-biotin-labeled BSA prepared in the above (3.2.1) was diluted 100-fold with 0.1 M phosphate buffer (pH 7.5). A reagent for measuring L-biotin (91.7 μL) and a sample containing diluted L-biotin-labeled BSA (18.3 μL) or a sample containing an L-biotin-labeled antibody (18.3 μL) were mixed, and the mixture was allowed to stand at room temperature for 5 minutes. Then, A500 of the reaction mixture was measured by UV-2600. The amount (μM) of L-biotin contained in each sample was determined from a calibration curve (regression equation) for the reagent for measuring L-biotin.

avidin, sequence (P02701 25-152): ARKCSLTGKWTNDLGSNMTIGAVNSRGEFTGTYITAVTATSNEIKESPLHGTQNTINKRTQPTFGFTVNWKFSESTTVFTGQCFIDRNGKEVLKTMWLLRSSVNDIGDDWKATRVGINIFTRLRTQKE

| Compound | A500 Measurement reagent 1 (D-biotin standard solution 25 μM) | A500 Measurement reagent 1 (D-biotin standard solution 50 μM) | Biotin concentration (D-biotin in sample, Table 3) [µM] | D-Biotin (from calibration curve, BSA sample value multiplied by 100) [µM] | A500 (sample with Reagent 1 for measuring D-biotin, BSA sample diluted 100-fold) |
| --- | --- | --- | --- | --- | --- |
| O=C(O)CCCC[C@@H]1SC[C@@H]2NC(=O)N[C@@H]21 [D-Biotin, 3aS,4S,6aR-D-biotin] | 0.194 | 0.062 |  |  |  |
| D-Bio-BSA: BSA labeled with D-biotin AC5-NHS |  |  | 1375.0 | 1375.0 | 0.257 |
